Data set [1] is described as follows: Spectrophotometric-coupled assay of Spector (rate of AMP production; specific activity of enzyme preparations). In kind it is biochemical. An excerpt:
The medium will usually be a salt medium such as normal saline, phosphate buffer, or phosphate buffered saline containing additives well known to those skilled in the art and commercially available from a number of suppliers such as GIBCO and Hyclone. The cultured cells are then homogenized under conventional conditions such as, for example, sonication, freeze-thawing, and hypotonic lysis, and the cytosolic fraction is obtained by centrifugation and recovery of the supernatant. Differential salt fractionation, using, for example, ammonium sulfate, is employed to separate the GMP synthetase-richprotein fraction. Salt is then removed by one of a variety of known methods such as gel filtration, dialysis and the like. The desalted protein fraction is then subjected to anion exchange chromatography. […] Fractions showing GMP-synthetase activity are further subjected to hydrophobic interaction chromatography and a second purification via anion exchange chromatography. […] The assay measures the rate of production of AMP by GMP synthetase by coupling it to the oxidation of NADH via the auxiliary enzymes AMP kinase, pyruvate kinase and lactate dehydrogenase.
This assay measured the rate of AMP production by GMP synthetase, and the level of AMP is measured through the activity of three auxiliary enzymes. […] This rate is referred to as background rate.

The conditions of data set [2]: partially purified, approximately 50-fold, human fibroblast cells; cited from earlier work.
The test system of data set [3] is transplant rejection and rheumatoid arthritis. The conditions noted are these: recent clinical trials; cited from earlier work.
In the next data set the test system is lymphocyte. The note with it: can be blocked by exogenous guanosine; cited from earlier work.
The test system of a further data set is IMP dehydrogenase. The note with it: cited from earlier work.
Data set [4] concerns GMP synthetase from Ehrlich ascites cells. The note with it: cited from earlier work.
[5] abbreviates: purified enzyme, repeated purifications or single preparation.

Like-named read-outs stand apart in the source and are kept apart here.

With “recombinant human GMP synthetase: baculoviral expressed human GMP synthetase purified from Sf-9 cells”, the specific activity is 3.0-4.4 μmol AMP produced/min/mg in data set [1] (setting [5]) and 4.4 μmol AMP produced/min/mg in data set [1] (purified enzyme, repeated purifications or single preparation, listed as purified protein).

As to “partially purified preparation from human fibroblast cells: GMP synthetase from human fibroblasts, purified approximately 50-fold by ammonium sulfate fractionation and gel filtration”, in data set [2], the specific activity is 5990 pmoles guanine compound produced/min/mg.

Take `COc1c(C)c2c(c(O)c1C/C=C(\C)CCC(=O)O)C(=O)OC2` [mycophenolic acid]: the “effective in treatment of transplant rejection and rheumatoid arthritis” value in data set [3] is “effective”. Moreover, in the data set with lymphocyte, the “inhibition of lymphocyte proliferation, correlated with lowering of the intracellular pool of guanine nucleotides” value is reported as “inhibition of lymphocyte proliferation”. Also, the “inhibitor of IMP dehydrogenase” value in the data set on IMP dehydrogenase is listed as “potent inhibitor”.

In the case of `O=P(O)(O)OP(=O)(O)O` [pyrophosphate], the “inhibition of the enzyme by its reaction product” value in data set [4] is “inhibition”.

As for “human GMP synthetase: purified human GMP synthetase from A3.01 cells, single Coomassie blue-staining band at 75 kDa”, the specific activity in data set [1] (Mono Q pool, purified from A3.01 cells) is on record as 3.0 μmol AMP/min-mg; in data set [1] (setting [5]) it was 2.5-4.0 μmol AMP produced/min/mg.

These data come from patent US5789216A, “Cloning and expression of human GMP synthetase, its use in screening for inhibitors of human GMP synthetase and inhibitors of human GMP synthetase” (Syntex (U.S.A.) Inc., priority 1995, dated 1998).
